Results on 2 molecules are retold here after US20030175885A1 (REGEN BIOTECH, published 2003).

Test [1] deals with T1, α3β1 integrin (UniProt P26006 33-1051; P05556 21-798).
T1 construct: whole, on cells; Never used as a purified protein; It is always the receptor on HCE cells in adhesion assays; also called integrin α3β1; functional receptor for βig-h3
In words: HCE cell adhesion to coated peptide (100 µM) with function-blocking anti-integrin mAbs. The procedure:
(§1) Function-blocking experiments using monoclonal antibodies against various integrin subunits were carried out to examine whether α3β1 integrin, known as a surface receptor of βig-h3, would be involved in the cell adhesion mediated by the synthetic peptides EPDIM and NKDIL. HCE was preincubated at 37° C. for 30 min in the presence of each of the monoclonal antibodies (5 μg/ml) against different types of integrins. The preincubated cells were transferred onto plates precoated with 100 μM EPDIM or 100 μM NKDIL and then incubated further at 37° C. for 1 hour, followed by the quantitative analysis with hexosaminidase substrate as in Example 1-2.

Test [2] deals with T1, α3β1 integrin. In words: HCE cell adhesion and adhesion inhibition assays. The method, then:
as §1

T1 sequence (P26006 33-1051, chain 1 of 2): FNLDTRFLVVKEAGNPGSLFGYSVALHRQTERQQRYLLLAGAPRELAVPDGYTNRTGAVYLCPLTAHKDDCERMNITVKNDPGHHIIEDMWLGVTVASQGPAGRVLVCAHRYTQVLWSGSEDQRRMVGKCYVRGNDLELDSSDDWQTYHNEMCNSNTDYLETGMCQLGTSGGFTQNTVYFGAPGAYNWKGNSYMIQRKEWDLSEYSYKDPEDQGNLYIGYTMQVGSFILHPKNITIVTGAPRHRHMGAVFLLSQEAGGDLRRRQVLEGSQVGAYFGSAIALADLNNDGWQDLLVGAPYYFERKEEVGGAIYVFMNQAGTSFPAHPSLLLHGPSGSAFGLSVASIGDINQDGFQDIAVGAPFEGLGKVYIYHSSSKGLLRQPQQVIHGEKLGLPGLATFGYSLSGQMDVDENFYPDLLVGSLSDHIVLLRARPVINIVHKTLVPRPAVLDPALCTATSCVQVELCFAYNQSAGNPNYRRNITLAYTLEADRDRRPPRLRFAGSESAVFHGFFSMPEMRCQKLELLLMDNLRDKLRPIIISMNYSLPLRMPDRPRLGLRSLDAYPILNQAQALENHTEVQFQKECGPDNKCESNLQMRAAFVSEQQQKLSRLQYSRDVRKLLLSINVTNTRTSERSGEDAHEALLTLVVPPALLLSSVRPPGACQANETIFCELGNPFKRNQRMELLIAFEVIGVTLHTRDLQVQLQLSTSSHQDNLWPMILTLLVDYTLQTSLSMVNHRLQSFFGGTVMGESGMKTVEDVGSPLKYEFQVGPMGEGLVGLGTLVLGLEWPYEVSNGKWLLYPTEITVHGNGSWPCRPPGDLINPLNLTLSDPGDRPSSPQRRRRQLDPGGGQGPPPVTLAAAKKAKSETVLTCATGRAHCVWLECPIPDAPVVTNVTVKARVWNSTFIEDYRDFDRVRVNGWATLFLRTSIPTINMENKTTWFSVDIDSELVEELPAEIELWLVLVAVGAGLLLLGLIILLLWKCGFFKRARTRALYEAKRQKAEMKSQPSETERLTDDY
T1 sequence (P05556 21-798, chain 2 of 2): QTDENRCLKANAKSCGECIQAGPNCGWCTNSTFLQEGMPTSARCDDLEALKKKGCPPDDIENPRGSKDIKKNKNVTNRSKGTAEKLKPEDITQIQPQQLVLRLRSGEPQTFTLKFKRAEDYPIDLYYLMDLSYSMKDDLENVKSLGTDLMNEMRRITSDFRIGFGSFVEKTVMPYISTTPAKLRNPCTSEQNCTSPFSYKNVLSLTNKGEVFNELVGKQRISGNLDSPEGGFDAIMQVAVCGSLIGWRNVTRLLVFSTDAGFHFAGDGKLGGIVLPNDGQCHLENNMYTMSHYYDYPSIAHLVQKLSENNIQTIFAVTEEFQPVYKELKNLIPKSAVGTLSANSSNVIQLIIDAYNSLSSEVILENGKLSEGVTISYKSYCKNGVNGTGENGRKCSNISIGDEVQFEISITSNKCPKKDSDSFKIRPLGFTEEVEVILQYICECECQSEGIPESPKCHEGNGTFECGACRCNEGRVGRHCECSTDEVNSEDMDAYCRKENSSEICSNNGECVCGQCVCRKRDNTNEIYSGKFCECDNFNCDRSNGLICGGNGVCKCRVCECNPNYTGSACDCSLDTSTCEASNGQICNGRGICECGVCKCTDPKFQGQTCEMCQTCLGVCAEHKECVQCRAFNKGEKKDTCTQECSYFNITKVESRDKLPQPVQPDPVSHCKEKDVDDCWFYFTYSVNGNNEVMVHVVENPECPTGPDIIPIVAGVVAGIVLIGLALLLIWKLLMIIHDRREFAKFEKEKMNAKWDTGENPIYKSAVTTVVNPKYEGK

B1: synthetic peptide NKDIL (peptide)
peptide: NKDIL
notes: Made by solid phase synthesis; also called 2nd fas-1 domain-derived synthetic peptide; NKDIL (a.a. 354-358)
In the case of B1, the binding result in the test with α3β1 integrin [1] is given as “binds”.

B2: synthetic peptide EPDIM (peptide)
peptide: EPDIM
notes: Made by solid phase synthesis; also called 4th fas-1 domain-derived synthetic peptide; EPDIM (a.a. 615-619)
As to B2, the binding result in the test with α3β1 integrin [2] is reported as “binds”.
